# Measured values: paper PMC12380113
# Assays:
# [1] = target: T1, CD34 (mouse orbital fibroblasts) (Mus musculus) (UniProt Q64314); experiment: flow cytometry; details: whole-cell binding to mouse orbital fibroblasts, 4 C, 1 h, SELEX binding buffer: DPBS, 4.5 mg/mL D-glucose, 5 mM MgCl2, 1 mg/mL BSA, 1 mg/mL yeast tRNA, flow cytometry at 4 C, pull-down lysis buffer 5 mM …
# T1 sequence: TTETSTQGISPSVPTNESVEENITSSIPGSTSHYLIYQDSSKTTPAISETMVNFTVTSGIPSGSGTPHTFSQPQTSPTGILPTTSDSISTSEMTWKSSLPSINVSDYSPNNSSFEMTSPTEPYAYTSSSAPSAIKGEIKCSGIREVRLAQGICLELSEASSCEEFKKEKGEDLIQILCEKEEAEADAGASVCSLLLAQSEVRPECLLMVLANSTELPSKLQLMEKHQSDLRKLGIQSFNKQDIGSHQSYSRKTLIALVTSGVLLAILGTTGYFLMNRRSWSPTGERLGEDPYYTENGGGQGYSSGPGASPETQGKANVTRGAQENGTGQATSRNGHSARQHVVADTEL
# [2] = target: T2, CD34 (human orbital fibroblasts) (Homo sapiens) (UniProt P28906); experiment: flow cytometry; details: whole-cell binding to human orbital fibroblasts, 4 C, 1 h, SELEX binding buffer: DPBS, 4.5 mg/mL D-glucose, 5 mM MgCl2, 1 mg/mL BSA, 1 mg/mL yeast tRNA, flow cytometry at 4 C, pull-down lysis buffer 5 mM …
# T2 sequence: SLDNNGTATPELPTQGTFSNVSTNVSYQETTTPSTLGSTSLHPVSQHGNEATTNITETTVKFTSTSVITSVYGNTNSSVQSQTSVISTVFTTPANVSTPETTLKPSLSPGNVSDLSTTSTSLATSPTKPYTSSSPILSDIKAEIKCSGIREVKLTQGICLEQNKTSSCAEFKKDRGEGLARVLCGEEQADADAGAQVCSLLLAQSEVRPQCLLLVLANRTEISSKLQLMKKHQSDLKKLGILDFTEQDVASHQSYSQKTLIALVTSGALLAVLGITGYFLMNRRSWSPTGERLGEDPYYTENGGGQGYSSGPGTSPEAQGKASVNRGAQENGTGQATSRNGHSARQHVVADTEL
sequence,measurement,setting,value
CAGCACCGTCAACTGAATCTCATTGCGGCGTCCGGCTGGACGTTATTGTTGGAACCGTGATGCGATGGAGATGT [CD34 Apt (FAM)],Kd,[1],90.3 nM
same,Kd,[2],19.1 nM
